# According to the supplement of paper PMC9112550, “Optimization of the antimicrobial peptide Bac7 by deep mutational scanning” (BMC Biology, 2022):
# Test system: Escherichia coli TOP10
# Assay: shrunken log2 fold change of peptide-encoding DNA abundance (4.5 h post-induction vs induction); higher = less antimicrobial activity (less host growth inhibition)
# Details: time post-induction: 4.5 h; library: site-saturation at positions 5, 18, 19, 20
# 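Note: peptides expressed intracellularly from a pBAD plasmid library in pooled LB shake-flask culture, induced with 0.3% L-arabinose, DNA abundance read by NGS, three biological replicates, DESeq2 with apeglm shrinkage.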
row,Sequence,shrunken log2 fold change
1,RRIRIRPPRLPRPRPRPLEDPRP,-0.0413
2,RRIRFRPPRLPRPRPRPFPRPRP,-0.0288
3,RRIRPRPPRLPRPRPRPWSAPRP,-0.00633
4,RRIRYRPPRLPRPRPRPEYGPRP,-0.249
5,RRIRARPPRLPRPRPRPSIGPRP,0.111
6,RRIRLRPPRLPRPRPRPNYWPRP,-0.0686
7,RRIRQRPPRLPRPRPRPCDCPRP,-0.0243
8,RRIRYRPPRLPRPRPRPIETPRP,-0.0177
9,RRIRRRPPRLPRPRPRPYNMPRP,-0.499
10,RRIRRRPPRLPRPRPRPHWTPRP,-0.12
11,RRIRKRPPRLPRPRPRPALFPRP,0.497
12,RRIRTRPPRLPRPRPRPDYMPRP,-0.687
13,RRIRRRPPRLPRPRPRPITHPRP,-0.287
14,RRIRFRPPRLPRPRPRPETNPRP,0.127
15,RRIRFRPPRLPRPRPRPQLGPRP,0.1
16,RRIRTRPPRLPRPRPRPTFLPRP,-0.0937
17,RRIRRRPPRLPRPRPRPRQSPRP,0.243
18,RRIRYRPPRLPRPRPRPECWPRP,0.192
19,RRIRQRPPRLPRPRPRPATDPRP,-0.0316
20,RRIRIRPPRLPRPRPRPALEPRP,-0.0629
21,RRIRRRPPRLPRPRPRPAPSPRP,0.809
22,RRIRFRPPRLPRPRPRPPRIPRP,0.232
23,RRIRWRPPRLPRPRPRPNCDPRP,0.14
24,RRIRDRPPRLPRPRPRPQDNPRP,-0.0684
25,RRIRGRPPRLPRPRPRPCYNPRP,0.0333

row,Sequence,shrunken log2 fold change
1,RRIRRRPPRLPRPRPRPDQHPRP,0.552
2,RRIRDRPPRLPRPRPRPKKQPRP,0.187
3,RRIRTRPPRLPRPRPRPFPPPRP,-0.0137
4,RRIRERPPRLPRPRPRPHDPPRP,-0.0577
5,RRIRCRPPRLPRPRPRPMHTPRP,-0.106
6,RRIRARPPRLPRPRPRPQLPPRP,0.327
7,RRIRGRPPRLPRPRPRPYRLPRP,-0.233
8,RRIRPRPPRLPRPRPRPIRQPRP,-0.0697
9,RRIRRRPPRLPRPRPRPNMLPRP,-0.061
10,RRIRCRPPRLPRPRPRPPLDPRP,0.616
11,RRIRGRPPRLPRPRPRPRMDPRP,0.59
12,RRIRCRPPRLPRPRPRPPCSPRP,-0.315
13,RRIRARPPRLPRPRPRPFSAPRP,-0.0294
14,RRIRFRPPRLPRPRPRPVYCPRP,-0.408
15,RRIRQRPPRLPRPRPRPYQDPRP,0.00682
16,RRIRFRPPRLPRPRPRPPWIPRP,0.3
17,RRIRFRPPRLPRPRPRPNTMPRP,-0.648
18,RRIRGRPPRLPRPRPRPTVEPRP,1.27
19,RRIRSRPPRLPRPRPRPNLHPRP,-0.219
20,RRIRPRPPRLPRPRPRPRMLPRP,0.00647
21,RRIRSRPPRLPRPRPRPPKSPRP,0.271
22,RRIRMRPPRLPRPRPRPDPEPRP,0.769
23,RRIRSRPPRLPRPRPRPRHSPRP,-0.356
24,RRIRMRPPRLPRPRPRPMLGPRP,0.141
25,RRIRKRPPRLPRPRPRPLCDPRP,0.376

row,Sequence,shrunken log2 fold change
1,RRIRLRPPRLPRPRPRPQRRPRP,0.0742
2,RRIRNRPPRLPRPRPRPLHEPRP,0.0748
3,RRIRGRPPRLPRPRPRPCTQPRP,0.196
4,RRIRQRPPRLPRPRPRPDWYPRP,-0.32
5,RRIRDRPPRLPRPRPRPDKEPRP,-0.0124
6,RRIRCRPPRLPRPRPRPLPMPRP,0.074
7,RRIRRRPPRLPRPRPRPNTPPRP,0.0411
8,RRIRRRPPRLPRPRPRPHMAPRP,-0.128
9,RRIRQRPPRLPRPRPRPYLEPRP,-0.332
10,RRIRARPPRLPRPRPRPQGWPRP,0.472
11,RRIRRRPPRLPRPRPRPWDFPRP,0.0406
12,RRIRHRPPRLPRPRPRPSNGPRP,-0.605
13,RRIRSRPPRLPRPRPRPGFIPRP,-0.205
14,RRIRARPPRLPRPRPRPYFEPRP,-0.577
15,RRIRRRPPRLPRPRPRPVHGPRP,0.335
16,RRIRMRPPRLPRPRPRPRETPRP,1.49
17,RRIRQRPPRLPRPRPRPPYPPRP,-0.0407
18,RRIRWRPPRLPRPRPRPMKLPRP,-0.198
19,RRIRVRPPRLPRPRPRPWLMPRP,-0.136
20,RRIRQRPPRLPRPRPRPSPDPRP,0.262
21,RRIRIRPPRLPRPRPRPWTKPRP,0.0573
22,RRIRLRPPRLPRPRPRPDCKPRP,0.0852
23,RRIRHRPPRLPRPRPRPIPYPRP,-0.3
24,RRIRRRPPRLPRPRPRPVNCPRP,0.148
25,RRIRQRPPRLPRPRPRPTCKPRP,0.0706

row,Sequence,shrunken log2 fold change
1,RRIRWRPPRLPRPRPRPGHVPRP,0.153
2,RRIRRRPPRLPRPRPRPELPPRP,0.695
3,RRIRIRPPRLPRPRPRPQKPPRP,-0.00327
4,RRIRMRPPRLPRPRPRPVDYPRP,-0.0574
5,RRIRERPPRLPRPRPRPSPRPRP,0.265
6,RRIRWRPPRLPRPRPRPTLRPRP,0.0881
7,RRIRHRPPRLPRPRPRPLFIPRP,-0.68
8,RRIRLRPPRLPRPRPRPKITPRP,-0.203
9,RRIRKRPPRLPRPRPRPGRGPRP,0.593
10,RRIRSRPPRLPRPRPRPSLMPRP,-0.201
11,RRIRPRPPRLPRPRPRPCPKPRP,-0.0283
12,RRIRVRPPRLPRPRPRPYRQPRP,-0.479
13,RRIRERPPRLPRPRPRPIPAPRP,-0.0833
14,RRIRWRPPRLPRPRPRPMYVPRP,-0.0461
15,RRIRIRPPRLPRPRPRPCDTPRP,-0.387
16,RRIRVRPPRLPRPRPRPFWVPRP,0.421
17,RRIRYRPPRLPRPRPRPQMLPRP,-0.846
18,RRIRMRPPRLPRPRPRPFFAPRP,0.445
19,RRIRQRPPRLPRPRPRPLLVPRP,-0.295
20,RRIRIRPPRLPRPRPRPQIYPRP,-1.08
21,RRIRDRPPRLPRPRPRPHPQPRP,0.256
22,RRIRSRPPRLPRPRPRPEVEPRP,0.112
23,RRIRRRPPRLPRPRPRPGVKPRP,0.187
24,RRIRPRPPRLPRPRPRPFVRPRP,-0.117
25,RRIRWRPPRLPRPRPRPRMNPRP,-0.111

row,Sequence,shrunken log2 fold change
1,RRIRSRPPRLPRPRPRPGNKPRP,-0.194
2,RRIRSRPPRLPRPRPRPAGEPRP,0.0686
3,RRIRCRPPRLPRPRPRPWVAPRP,-0.0206
4,RRIRMRPPRLPRPRPRPDWFPRP,0.235
5,RRIRKRPPRLPRPRPRPAGAPRP,0.698
6,RRIRGRPPRLPRPRPRPWDGPRP,0.486
7,RRIRCRPPRLPRPRPRPWNRPRP,-0.162
8,RRIRDRPPRLPRPRPRPRCEPRP,0.161
9,RRIRKRPPRLPRPRPRPYEMPRP,0.138
10,RRIRTRPPRLPRPRPRPEMAPRP,0.484
11,RRIRIRPPRLPRPRPRPMTAPRP,-0.2
12,RRIRIRPPRLPRPRPRPNGLPRP,0.0383
13,RRIRHRPPRLPRPRPRPNYQPRP,-0.28
14,RRIRQRPPRLPRPRPRPRNPPRP,0.375
15,RRIRPRPPRLPRPRPRPMFAPRP,-0.0605
16,RRIRYRPPRLPRPRPRPYYGPRP,-0.0846
17,RRIRFRPPRLPRPRPRPGDYPRP,-0.406
18,RRIRTRPPRLPRPRPRPHQAPRP,-0.00677
19,RRIRSRPPRLPRPRPRPQKDPRP,-0.323
20,RRIRERPPRLPRPRPRPKNQPRP,-0.281
21,RRIRTRPPRLPRPRPRPNEVPRP,0.0231
22,RRIRERPPRLPRPRPRPWPSPRP,0.134
23,RRIRHRPPRLPRPRPRPGRKPRP,0.00144
24,RRIRYRPPRLPRPRPRPGCWPRP,0.289
25,RRIRKRPPRLPRPRPRPMFHPRP,-0.144

row,Sequence,shrunken log2 fold change
1,RRIRARPPRLPRPRPRPSNLPRP,-0.39
2,RRIRKRPPRLPRPRPRPYRHPRP,-1.11
3,RRIRIRPPRLPRPRPRPPDLPRP,-0.00973
4,RRIRGRPPRLPRPRPRPRTPPRP,1.18
5,RRIRHRPPRLPRPRPRPIMSPRP,-0.161
6,RRIRERPPRLPRPRPRPGYAPRP,-0.102
7,RRIRRRPPRLPRPRPRPFTEPRP,-0.267
8,RRIRARPPRLPRPRPRPVNHPRP,-0.298
9,RRIRCRPPRLPRPRPRPIQFPRP,-0.131
10,RRIRFRPPRLPRPRPRPGKDPRP,-0.105
11,RRIRRRPPRLPRPRPRPHSFPRP,0.199
12,RRIRKRPPRLPRPRPRPEPEPRP,1.34
13,RRIRTRPPRLPRPRPRPPASPRP,1.72
14,RRIRYRPPRLPRPRPRPFGAPRP,-0.391
15,RRIRARPPRLPRPRPRPCIEPRP,0.105
16,RRIRLRPPRLPRPRPRPYAWPRP,0.0863
17,RRIRERPPRLPRPRPRPSYCPRP,-0.715
18,RRIRCRPPRLPRPRPRPNNCPRP,-0.636
19,RRIRCRPPRLPRPRPRPDCTPRP,-0.232
20,RRIRTRPPRLPRPRPRPPWYPRP,-0.166
21,RRIRARPPRLPRPRPRPHGNPRP,-0.0231
22,RRIRRRPPRLPRPRPRPHCHPRP,-0.134
23,RRIRWRPPRLPRPRPRPVQAPRP,0.36
24,RRIRFRPPRLPRPRPRPNWPPRP,0.333
25,RRIRARPPRLPRPRPRPGLKPRP,0.469
